Measurements published in US12404345B2, “Humanized antibodies against iRHOM2” (SCIRHOM GMBH, priority 2021, dated 2025).

B1: 23-B-04: humanized antibody binding human iRhom2; HCVD SEQ ID NO 25, LCVD SEQ ID NO 29 (antibody, V domains shown)
VH: QVTLRESGPALVKPTQTLTLTCTFSGFSLSTFGMGVGWIRQPPGKALEWLAHIWWDDEKYYNSALKSRLTISKDTSKNQVVLTITNMDPVDTATYYCARISNYGSNYWYFNVWGQGTLVTVSS
VL: AIQLTQSPSSLSASVGDRVTITCRASSSVSYMYWYQQKPGKAPKVLIYDTSNLASGVPSRFSGSGSGTDYTLTISSLQPEDFATYYCQQWNAYPLTFGQGTKLEIK
modifications: antibody sequences
B2: 42-B-02: humanized antibody binding human iRhom2; HCVD SEQ ID NO 33, LCVD SEQ ID NO 37 (antibody, V domains shown)
VH: QVTLRESGPALVKPTQTLTLTCTFSGFSLSTFGRGVGWIRQPPGKALEWLAHIWWDDEKYYNSALKSRLTISKDTSKNQVVLTITNMDPVDTATYYCARIQNYGSNYWYFDVWGQGTLVTVSS
VL: AIQLTQSPSSLSASVGDRVTITCRASSRISYMFWYQQKPGKAPKVLIYDTSNLASGVPSRFSGSGSGTDYTLTISSLQPEDFATYYCQQWNSYPLTFGQGTKLEIK
modifications: antibody sequences
B3: 42-B-04: humanized antibody binding human iRhom2; HCVD SEQ ID NO 41, LCVD SEQ ID NO 45 (antibody, V domains shown)
VH: QVTLRESGPALVKPTQTLTLTCTFSGFSLSTFGRGVGWIRQPPGKALEWLAHIWWDDEKYYNSALKSRLTISKDTSKNQVVLTITNMDPVDTATYYCARIQNYGSNYWYFDVWGQGTLVTVSS
VL: AIQLTQSPSSLSASVGDRVTITCRASSRISYMFWYQQKPGKAPKVLIYDTSNLASGVPSRFSGSGSGTDYTLTISSLQPEDFATYYCQQWNAYPLTFGQGTKLEIK
modifications: antibody sequences
B4: 16-B-03: humanized antibody binding human iRhom2; HCVD SEQ ID NO 1, LCVD SEQ ID NO 5 (antibody, V domains shown)
VH: QVTLRESGPALVKPTQTLTLTCTFSGFSLSTFALGVGWIRQPPGKALEWLAHIWWDDDKYYNPALKSRLTISKDTSKNQVVLTITNMDPVDTATYYCARITTYYYGMDYWGQGTLVTVSS
VL: EIVMTQSPDFQSVTPKEKVTITCRASQSIGNHLHWYQQKPDASPKLLIKYASQSISGVPSRFSGSGSGTDFTLTINSLEAEDAATYFCQQSYQWPLTFGQGTKLEIK
modifications: antibody sequences
B5: 16-B-07: humanized antibody binding human iRhom2; HCVD SEQ ID NO 17, LCVD SEQ ID NO 21 (antibody, V domains shown)
VH: QVTLRESGPALVKPTQTLTLTCTFSGFSLSTFALGVGWIRQPPGKALEWLAHIWWDEDKYYNPALKSRLTISKDTSKNQVVLTITNMDPVDTATYYCARITTYYYGMDYWGQGTLVTVSS
VL: EIVMTQSPDFQSVTPKEKVTITCRASQSIGNHLHWYQQKPDASPKLLIKYASQSISGVPSRFSGSGSGTDFTLTINSLEAEDAATYFCQQSYQWPLTFGQGTKLEIK
modifications: antibody sequences
B6: 16-B-05: humanized antibody binding human iRhom2; HCVD SEQ ID NO 9, LCVD SEQ ID NO 13 (antibody, V domains shown)
VH: QVTLRESGPALVKPTQTLTLTCTFSGFSLSTFALGVGWIRQPPGKALEWLAHIWWDEDKYYNPALKSRLTISKDTSKNQVVLTITNMDPVDTATYYCARITTYYYGMDYWGQGTLVTVSS
VL: EIVMTQSPDFQSVTPKEKVTITCRASQSIGNHLHWYQQKPDASPKLLIKYASQSISGVPSRFSGSGSGTDFTLTINSLEAEDAATYFCQQSYNWPLTFGQGTKLEIK
modifications: antibody sequences

The molecules below were run against T1, rhesus monkey iRhom1 (Macaca mulatta, UniProt F6ZPC8) (assay: FACS binding on MEF-DKO-Rhesus-iR1-FL-WT-T7 cells). Details: antibody at 3 μg/ml.
T1 construct: T7-tagged version of rhesus monkey iRhom1 full length wild type; expressed in transfected cells; host or cells: immortalized iRhom1/2-/- DKO mouse embryonic fibroblasts, pMSCV retroviral infection
T1 sequence (F6ZPC8 1-833): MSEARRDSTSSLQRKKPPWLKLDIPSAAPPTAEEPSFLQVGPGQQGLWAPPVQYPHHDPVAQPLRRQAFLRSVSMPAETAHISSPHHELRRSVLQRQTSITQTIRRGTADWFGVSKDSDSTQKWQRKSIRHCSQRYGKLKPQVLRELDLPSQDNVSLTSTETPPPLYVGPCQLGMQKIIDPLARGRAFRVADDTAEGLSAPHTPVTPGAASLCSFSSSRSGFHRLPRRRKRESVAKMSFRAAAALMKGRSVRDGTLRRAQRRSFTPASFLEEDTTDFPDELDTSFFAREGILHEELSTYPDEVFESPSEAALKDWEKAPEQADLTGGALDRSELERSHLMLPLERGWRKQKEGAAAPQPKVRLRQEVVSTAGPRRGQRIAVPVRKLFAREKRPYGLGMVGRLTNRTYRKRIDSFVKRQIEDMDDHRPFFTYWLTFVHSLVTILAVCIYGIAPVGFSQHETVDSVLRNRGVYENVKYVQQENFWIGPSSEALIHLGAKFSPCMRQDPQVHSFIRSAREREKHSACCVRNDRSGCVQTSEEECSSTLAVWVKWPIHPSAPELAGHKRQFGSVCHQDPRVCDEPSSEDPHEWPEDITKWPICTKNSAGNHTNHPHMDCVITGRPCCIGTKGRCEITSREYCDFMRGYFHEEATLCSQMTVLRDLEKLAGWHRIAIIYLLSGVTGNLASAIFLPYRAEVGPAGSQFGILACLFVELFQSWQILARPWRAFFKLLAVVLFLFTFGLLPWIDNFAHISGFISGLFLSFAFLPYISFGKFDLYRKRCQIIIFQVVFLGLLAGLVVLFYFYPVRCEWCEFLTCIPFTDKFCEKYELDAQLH
From the text: Next, iRhom1/2−/− DKO MEFs stably expressing a tagged form of rhesus monkey, cynomolgus monkey, dog or rabbit iRhom2 were generated in order to determine cross-reactivity of the antibodies of the invention with the respective orthologue of iRhom2. iRhom1/2−/− DKO MEFs stably expressing a tagged form of rhesus monkey, cynomolgus monkey, dog or rabbit iRhom1 were generated to confirm specificity for iRhom2 versus iRhom1 of these species.
In brief, on day 1, Phoenix-ECO cells (American Type Culture Collection, USA) were seeded on 6-well tissue culture plates (Greiner, Germany) in standard growth medium at 8×10^5 cells per well and kept overnight at 37° C., 5% CO2. On day 2, the medium was replaced by fresh medium supplemented with chloroquine (Sigma-Aldrich, USA) at a final concentration of 25 μM. Applying the calcium phosphate method, cells were transfected with 2 μg/ml of pMSCV (Clontech, USA) empty vector, pMSCV-rhesus-iR2-FL-WT-T7 encoding rhesus monkey iRhom2 full length wild type C-terminally tagged with 3 consecutive copies of the T7 epitope, pMSCV-cyno-iR2-FL-WT-T7 encoding cynomolgus monkey iRhom2 full length wild type C-terminally tagged with 3 consecutive copies of the T7 epitope, pMSCV-dog-iR2-FL-WT-T7 encoding dog iRhom2 full length wild type C-terminally tagged with 3 consecutive copies of the T7 epitope or pMSCV-rabbit-iR2-FL-WT-T7 encoding rabbit iRhom2 full length wild type C-terminally tagged with 3 consecutive copies of the T7 epitope, respectively, and were kept at 37° C., 5% CO2. After 7 hours, the transfections were stopped by replacing cell supernatants with standard growth medium lacking chloroquine, and cells were incubated at 37° C., 5% CO2 to allow virus production overnight. In parallel, immortalized iRhom1/2−/− DKO MEFs as target cells for retroviral infection were seeded on 6-well tissue culture plates (Greiner, Germany) in standard growth medium at 1×10^5 cells per well and were also kept overnight at 37° C., 5% CO2. On day 3, the supernatants of Phoenix-ECO cells releasing pMSCV, pMSCV-rhesus-iR2-FL-WT-T7, pMSCV-cyno-iR2-FL-WT-T7, pMSCV-dog-iR2-FL-WT-T7 or pMSCV-rabbit-iR2-FL-WT-T7 ecotrophic virus, respectively were collected, filtered with 0.45 μm CA filters, and supplemented with 4 μg/ml of polybrene (Sigma-Aldrich, USA). Upon removal of medium from the immortalized iRhom1/2−/− DKO MEFs, the virus containing supernatants were added to the target cells for 4 hours at 37° C., 5% CO2 for first infection. Simultaneously, Phoenix-ECO cells were re-incubated with fresh medium, which, after another 4 hours, was filtered and used for the second infection of the respective target cell populations, again in the presence of 4 μg/ml of polybrene. Likewise, a third, but overnight infection cycle was performed. On day 4, virus containing cell supernatants were replaced by fresh standard growth medium. From day 5 onwards, cells were grown in the presence of 2 mg/ml of geneticin (G418, Thermo Fisher Scientific, USA) for the selection of immortalized MEF-DKO-EV control cells stably infected with pMSCV empty vector, pMSCV-rhesus-iR2-FL-WT-T7 cells stably expressing rhesus monkey iRhom2 full length wild type C-terminally tagged with 3 consecutive copies of the T7 epitope, pMSCV-cyno-iR2-FL-WT-T7 cells stably expressing cynomolgus monkey iRhom2 full length wild type C-terminally tagged with 3 consecutive copies of the T7 epitope, pMSCV-dog-iR2-FL-WT-T7 cells stably expressing dog iRhom2 full length wild type C-terminally tagged with 3 consecutive copies of the T7 epitope or pMSCV-rabbit-iR2-FL-WT-T7 cells stably expressing rabbit iRhom2 full length wild type C-terminally tagged with 3 consecutive copies of the T7 epitope, respectively. Upon propagation, cells were stocked for future usage. In parallel, iRhom1/2−/− DKO MEFs stably expressing a tagged form of rhesus monkey, cynomolgus monkey, dog or rabbit iRhom1 were generated in an analogous manner. […]

| Molecule | binding to rhesus monkey iRhom1 on MEF-DKO-Rhesus-iR1-FL-WT-T7 cells |
| --- | --- |
| B1 | do not recognize rhesus monkey iRhom1 |
| B2 | do not recognize rhesus monkey iRhom1 |
| B3 | do not recognize rhesus monkey iRhom1 |
| B4 | no significant binding |
| B5 | do not recognize rhesus monkey iRhom1 |
| B6 | do not recognize rhesus monkey iRhom1 |
